Assay results from US20240009318A1 (BLISS BIOPHARMACEUTICAL HANGZHOU, published 2024).

Tests used:
[1] = target: T1, human EGFR protein (human, UniProt P00533 25-645, limits assumed); experiment: BLI (Octet RED96e), antibody captured on anti-human Fc (AHC) biosensors, EGFR in solution
T1 construct: The BLI text says 'human EGFR'; the ELISA text says only 'EGFR'; also called epidermal growth factor receptor; HER1
Protocol: Affinity tests are performed in SD buffer (0.02% Tween-20, 0.1% BSA in PBS buffer, pH 7.4) using anti-human Fc Capture (AHC) biosensors. Antibody sample or buffer are dispensed into 96-well microtiter plates. AHC biosensors (Pall FortéBio) are pre-wet with SD buffer to establish a baseline before protein immobilization. The antibody sample is immobilized onto the biosensors. […] Mutant and control antibodies binding is evaluated at various concentrations of EGFR. Data are generated automatically by the Data Acquisition software, and data analysis is performed using FortéBio Data Analysis software.

[2] = target: T1, human EGFR protein; experiment: ELISA
Protocol: (§1) Mutant antibody samples or control antibodies diluted in 5-fold serial dilutions starting from 10 μg/mL and 8 dilutions total, were coated onto 96-well plates and the plates were incubated at 4° C. overnight. Using HRP-labeled goat anti-human IgG Fc antibody (Sigma, A0170) in 40000 dilution as a detection agent and TMB for colorimetric reaction, the plates read at 450/650 nm for absorbance on Microplate Reader (Molecular Devices, SpectraMax 190) and data analysis was performed using a dose response curve format four parameters logistic model.

[3] = target: T1, human EGFR protein; experiment: ELISA of binding to EGFR, 5-fold dilutions from 10 ug/mL, detection with HRP goat anti-human IgG Fc, OD 450/650 nm
Protocol: as §1

| Kd [1] | koff [1] | kon [1] | EC50 fold change against wt control [2] | EC50 (read off the curve) [3] | Binder |
| --- | --- | --- | --- | --- | --- |
| 44.1 nM | 0.024 s⁻¹ | 543000 M⁻¹ s⁻¹ | – | – | BB0500-2n (antibody, Same variable domains as BB0500-2f; the heavy chain constant part differs) heavy: QVQLQESGPGLVKPSETLSLTCTVSGGSVSSGDYYWTWIRQSPGKGLEWIGHIYYSGNANYNPSLKSRLTISIDTSKTQFSLKLSSVTAADTAIYYCVRDRVTGAFDIWGQGTMVTVSSASTKGPSVFPLAPCSRSTSESTAALGCLVKDYFPEPVTVSWNSGALTSGVHTFPAVLQSSGLYSLSSVVTVPSSNFGTQTYTCNVDHKPSNTKVDKTVEPPKSDCKTHTVECPPCPAPEAAGGPSVFLFPPKPKDTLMISRTPEVTCVVVDVSHEDPEVKFNWYVDGVEVHNAKTKPREEQYNSTYRVVSVLTVLHQDWLNGKEYKCKVSNKALPAPIEKTISKAKGQPREPQVYTLPPSREEMTKNQVSLTCLVKGFYPSDIAVEWESNGQPENNYKTTPPVLDSDGSFFLYSKLTVDKSRWQQGNVFSCSVMHEALHNHYTQKSLSLSPGK light: not shown |
| – | – | – | ~100 fold | – | BB0500-2g1 (antibody, V domains shown, The entries already carry the mutation; also called H3T103 single alanine mutant of panitumumab (VH T103A, VL wt)) VH: QVQLQESGPGLVKPSETLSLTCTVSGGSVSSGDYYWTWIRQSPGKGLEWIGHIYYSGNTNYNPSLKSRLTISIDTSKTQFSLKLSSVTAADTAIYYCVRDRVAGAFDIWGQGTMVTVSS VL: DIQMTQSPSSLSASVGDRVTITCQASQDISNYLNWYQQKPGKAPKLLIYDASNLETGVPSRFSGSGSGTDFTFTISSLQPEDIATYFCQHFDHLPLAFGGGTKVEIKR |
| 1.12 nM | 0.000736 s⁻¹ | 655000 M⁻¹ s⁻¹ | – | ~0.02 µg/mL | BB0500-2f1 (antibody, V domains shown, The entries already carry the mutation; also called H2T59 single alanine mutant of panitumumab (VH T59A, VL wt)) VH: QVQLQESGPGLVKPSETLSLTCTVSGGSVSSGDYYWTWIRQSPGKGLEWIGHIYYSGNANYNPSLKSRLTISIDTSKTQFSLKLSSVTAADTAIYYCVRDRVTGAFDIWGQGTMVTVSS VL: DIQMTQSPSSLSASVGDRVTITCQASQDISNYLNWYQQKPGKAPKLLIYDASNLETGVPSRFSGSGSGTDFTFTISSLQPEDIATYFCQHFDHLPLAFGGGTKVEIKR |
| 28.3 nM | 0.0154 s⁻¹ | 543000 M⁻¹ s⁻¹ | – | ~0.02 µg/mL | BB0500-2f2 (antibody, V domains shown, The entries already carry the mutation; also called L2D50 single alanine mutant of panitumumab (VH wt, VL D50A)) VH: QVQLQESGPGLVKPSETLSLTCTVSGGSVSSGDYYWTWIRQSPGKGLEWIGHIYYSGNTNYNPSLKSRLTISIDTSKTQFSLKLSSVTAADTAIYYCVRDRVTGAFDIWGQGTMVTVSS VL: DIQMTQSPSSLSASVGDRVTITCQASQDISNYLNWYQQKPGKAPKLLIYAASNLETGVPSRFSGSGSGTDFTFTISSLQPEDIATYFCQHFDHLPLAFGGGTKVEIKR |
| 38.8 nM | 0.0272 s⁻¹ | 701000 M⁻¹ s⁻¹ | – | ~0.02 µg/mL | BB0500-2g (antibody, V domains shown, also called H3T103 / L1Y32 double alanine mutant of panitumumab (VH T103A, VL Y32A)) VH: QVQLQESGPGLVKPSETLSLTCTVSGGSVSSGDYYWTWIRQSPGKGLEWIGHIYYSGNTNYNPSLKSRLTISIDTSKTQFSLKLSSVTAADTAIYYCVRDRVAGAFDIWGQGTMVTVSS VL: DIQMTQSPSSLSASVGDRVTITCQASQDISNALNWYQQKPGKAPKLLIYDASNLETGVPSRFSGSGSGTDFTFTISSLQPEDIATYFCQHFDHLPLAFGGGTKVEIKR |
| – | – | – | – | ~0.02 µg/mL | BB0500-2f (antibody, Same variable domains as BB0500-2n; the heavy chain constant part differs; also called H2T59 / L2D50 double alanine mutant of panitumumab (VH T59A, VL D50A)) heavy: QVQLQESGPGLVKPSETLSLTCTVSGGSVSSGDYYWTWIRQSPGKGLEWIGHIYYSGNANYNPSLKSRLTISIDTSKTQFSLKLSSVTAADTAIYYCVRDRVTGAFDIWGQGTMVTVSSASTKGPSVFPLAPCSRSTSESTAALGCLVKDYFPEPVTVSWNSGALTSGVHTFPAVLQSSGLYSLSSVVTVPSSNFGTQTYTCNVDHKPSNTKVDKTVEPKSDKCTHTVECPPCPAPPVAGPSVFLFPPKPKDTLMISRTPEVTCVVVDVSHEDPEVQFNWYVDGVEVHNAKTKPREEQFNSTFRVVSVLTVVHQDWLNGKEYKCKVSNKGLPAPIEKTISKTKGQPREPQVYTLPPSREEMTKNQVSLTCLVKGFYPSDISVEWESNGQPENNYKTTPPMLDSDGSFFLYSKLTVDKSRWQQGNVFSCSVMHEALHNHYTQKSLSLSPGK light: not shown |
